Data on three molecules can be found in patent US20050069569A1.

Read-outs that look alike come from different tables or passages of the source.

Data set [1] deals with secPHEX (soluble, secreted form of recombinant human PHEX) (human) (UniProt P78562). The data set can be described thus: cell-based or functional assay.
For data set [2], the system named is T1, PTHrP107-139 (human).
T1 sequence: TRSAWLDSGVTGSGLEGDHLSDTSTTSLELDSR

The target in data set [3] is T2, PTHrP107-139 (human).
T2 chain: T1 sequence

On to “osteocalcin (human, extracted from bones, with Gla residues) (from UniProt P02818 52-100)”, for which, in data set [1], the 50% inhibition of secPHEX-mediated PTHrP107-139 hydrolysis (HPLC) was 3.6 µM and the inhibition of secPHEX activity at 5×10^-6 M osteocalcin turned out to be 75%.
Turning to “secPHEX (soluble, secreted form of recombinant human PHEX)”, the “degradation of PTHrP107-139 (HPLC)” value with PTHrP107-139 (human) [2] is “approximately 75 to 80% degradation of the peptide was observed”.

B1: secPHEXE581V (inactive soluble human PHEX with Glu 581 replaced by Val) (protein)
chain: QGLLSLQAKQEYCLKPECIEAAAAILSKVNLSVDPCDNFFRFACDGWISNNPIPEDMPSYGVYPWLRHNVDLKLKELLEKSISRRRDTEAIQKAKILYSSCMNEKAIEKADAKPLLHILRHSPFRWPVLESNIGPEGVWSERKFSLLQTLATFRGQYSNSVFIRLYVSPDDKASNEHILKLDQATLSLAVREDYLDNSTEAKSYRDALYKFMVDTAVLLGANSSRAEHDMKSVLRLEIKIAEIMIPHENRTSEAMYNKMNISELSAMIPQFDWLGYIKKVIDTRLYPHLKDISPSENVVVRVPQYFKDLFRILGSERKKTIANYLVWRMVYSRIPNLSRRFQYRWLEFSRVIQGTTTLLPQWDKCVNFIESALPYVVGKMFVDVYFQEDKKEMMEELVEGVRWAFIDMLEKENEWMDAGTKRKAKEKARAVLAKVGYPEFIMNDTHVNEDLKAIKFSEADYFGNVLQTRKYLAQSDFFWLRKAVPKTEWFTNPTTVNAFYSASTNQIRFPAGELQKPFFWGTEYPRSLSYGAIGVIVGHVFTHGFDNNGRKYDKNGNLDPWWSTESEEKFKEKTKCMINQYSNYYWKKAGLNVKGKRTLG
Take B1: the “degradation of PTHrP107-139 (HPLC)” value with PTHrP107-139 (human) [3] is given as “purified secPHEXE581V failed to degrade PTHrP107-139 under similar conditions”.
